According to PMC8139980, “Qki activates Srebp2-mediated cholesterol biosynthesis for maintenance of eye lens transparency”:

T1: Qki-5 full-length (UniProt Q9QYS9 1-341)
T1 sequence: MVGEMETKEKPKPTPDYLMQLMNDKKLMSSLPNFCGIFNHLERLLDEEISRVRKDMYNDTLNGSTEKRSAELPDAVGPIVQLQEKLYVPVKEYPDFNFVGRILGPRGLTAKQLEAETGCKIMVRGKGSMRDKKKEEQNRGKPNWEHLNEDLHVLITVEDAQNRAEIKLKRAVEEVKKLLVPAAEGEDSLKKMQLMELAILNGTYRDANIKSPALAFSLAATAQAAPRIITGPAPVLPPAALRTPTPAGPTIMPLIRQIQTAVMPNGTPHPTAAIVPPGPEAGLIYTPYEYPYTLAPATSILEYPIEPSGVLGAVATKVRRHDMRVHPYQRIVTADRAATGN

T2: Qki-5 STAR domain (UniProt Q9QYS9 7-214)
T2 sequence: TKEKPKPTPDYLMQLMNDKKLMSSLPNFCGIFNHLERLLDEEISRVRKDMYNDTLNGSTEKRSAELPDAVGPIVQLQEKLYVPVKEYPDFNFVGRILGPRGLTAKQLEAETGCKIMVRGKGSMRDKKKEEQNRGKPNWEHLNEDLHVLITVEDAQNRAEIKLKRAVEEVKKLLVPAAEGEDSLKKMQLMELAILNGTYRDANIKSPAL


How the values were obtained:
Qki-5 full-length [1] = biological target: T1, Qki-5 full-length; assay: ITC; Kd only in figure; MST: 20 nM Atto488-protein, PBS with Tween-20 (0.1% in 2x protein stock), 25 C; ITC: 50 mM Tris pH 7.5, 150 mM NaCl, 20 C; conditions: protein: recombinant; tags: N-terminal Trx-His6 (PreScission site); Atto488-NHS labeled for MST; chain copies: 2
Qki-5 STAR domain [2] = biological target: T2, Qki-5 STAR domain; assay: as above; conditions: protein: recombinant; tags: N-terminal Trx-His6 (PreScission site); chain copies: 2
Qki-5 full-length [3] = biological target: T1, Qki-5 full-length; assay: MST; Kd only in figure; MST: 20 nM Atto488-protein, PBS with Tween-20 (0.1% in 2x protein stock), 25 C; ITC: 50 mM Tris pH 7.5, 150 mM NaCl, 20 C; conditions: protein: recombinant; tags: N-terminal Trx-His6 (PreScission site); Atto488-NHS labeled for MST; chain copies: 2
Qki-5 full-length [4] = biological target: T1, Qki-5 full-length; assay: MST; MST: 20 nM Atto488-protein, PBS with Tween-20 (0.1% in 2x protein stock), 25 C; ITC: 50 mM Tris pH 7.5, 150 mM NaCl, 20 C; conditions: protein: recombinant; tags: N-terminal Trx-His6 (PreScission site); Atto488-NHS labeled for MST; chain copies: 2
Qki-5 STAR domain [5] = biological target: T2, Qki-5 STAR domain; assay: ITC; text says KH domain of Qki; assayed construct is STAR; MST: 20 nM Atto488-protein, PBS with Tween-20 (0.1% in 2x protein stock), 25 C; ITC: 50 mM Tris pH 7.5, 150 mM NaCl, 20 C; conditions: protein: recombinant; tags: N-terminal Trx-His6 (PreScission site); chain copies: 2

Row | Binder | binding result (Qki-5 full-length [3]) | Kd (Qki-5 full-length [4]) | also measured
1 | UUCACUAACAA (ssRNA) [QRE2] | – | – | binding result (Qki-5 full-length [1]): binds; binding result (Qki-5 STAR domain [2]): binds
2 | CCTGTAACTGG (ssDNA) [QDE3] | binds | – | –
3 | CAGATAACGCG (ssDNA) [QDE5] | binds | – | –
4 | CUUCUUAAUAUAACUGCCUUAAACUUUAAU (ssRNA) [QRE1] | binds | – | –
5 | CCAGTAACCAG (ssDNA) [QDE1] | – | 2.01 µM | Kd (Qki-5 STAR domain [5]): 11.9 µM
6 | GGGGTAAGGGG (ssDNA) [QDE4] | – | 81 µM | –
7 | CAGAGCGCGCG (ssDNA) [QDE5-m] | – | 83 µM | –
8 | CTTACGCTAAG (ssDNA) [QDE2] | binds | – | –
